Experimental data reported in PMC3442271.

Columns and labels:
XerC;XerD = biological target: T1, XerC;XerD (Vibrio cholerae;Vibrio cholerae, UniProt Q9KVL4;Q9KPE9 1-311;1-302, |); assay: footprinting
T1 sequence 1: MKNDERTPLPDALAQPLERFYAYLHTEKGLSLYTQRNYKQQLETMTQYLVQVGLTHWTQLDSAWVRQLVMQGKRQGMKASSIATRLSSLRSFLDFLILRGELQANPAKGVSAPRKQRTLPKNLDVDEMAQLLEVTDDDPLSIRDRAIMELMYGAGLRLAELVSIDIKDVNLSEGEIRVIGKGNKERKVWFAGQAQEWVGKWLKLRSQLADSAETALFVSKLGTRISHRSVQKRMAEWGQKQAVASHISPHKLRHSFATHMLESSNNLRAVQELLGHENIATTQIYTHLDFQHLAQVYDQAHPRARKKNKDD
T1 sequence 2: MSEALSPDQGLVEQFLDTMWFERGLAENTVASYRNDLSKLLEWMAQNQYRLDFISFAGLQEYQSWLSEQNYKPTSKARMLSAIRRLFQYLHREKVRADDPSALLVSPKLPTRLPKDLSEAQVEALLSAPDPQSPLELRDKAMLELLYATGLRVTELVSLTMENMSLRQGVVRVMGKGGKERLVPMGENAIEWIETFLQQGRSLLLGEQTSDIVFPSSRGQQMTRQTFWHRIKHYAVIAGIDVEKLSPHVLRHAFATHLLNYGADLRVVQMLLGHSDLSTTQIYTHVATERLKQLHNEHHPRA

[1] = biological target: T2, Endonuclease III (Endo III) (Escherichia coli, UniProt P0AB83 1-211); assay: EMSA
T2 sequence: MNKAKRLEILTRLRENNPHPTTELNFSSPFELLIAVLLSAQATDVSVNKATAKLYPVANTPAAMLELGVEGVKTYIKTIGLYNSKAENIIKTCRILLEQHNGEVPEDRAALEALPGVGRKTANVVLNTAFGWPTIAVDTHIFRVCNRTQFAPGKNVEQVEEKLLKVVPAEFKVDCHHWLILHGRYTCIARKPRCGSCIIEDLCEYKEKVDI

[2] = biological target: T3, Endonuclease III (Endo III);XerC;XerD (Escherichia coli;Vibrio cholerae;Vibrio …, UniProt P0AB83;Q9KVL4;Q9KPE9 1-211;1-311;1-302, ||); assay: footprinting
T3 sequence 1: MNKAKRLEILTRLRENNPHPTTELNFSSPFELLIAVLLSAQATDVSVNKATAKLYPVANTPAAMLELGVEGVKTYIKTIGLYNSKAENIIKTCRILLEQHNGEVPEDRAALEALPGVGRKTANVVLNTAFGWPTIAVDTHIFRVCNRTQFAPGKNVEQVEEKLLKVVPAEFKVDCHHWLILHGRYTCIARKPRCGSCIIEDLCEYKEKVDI
T3 sequence 2: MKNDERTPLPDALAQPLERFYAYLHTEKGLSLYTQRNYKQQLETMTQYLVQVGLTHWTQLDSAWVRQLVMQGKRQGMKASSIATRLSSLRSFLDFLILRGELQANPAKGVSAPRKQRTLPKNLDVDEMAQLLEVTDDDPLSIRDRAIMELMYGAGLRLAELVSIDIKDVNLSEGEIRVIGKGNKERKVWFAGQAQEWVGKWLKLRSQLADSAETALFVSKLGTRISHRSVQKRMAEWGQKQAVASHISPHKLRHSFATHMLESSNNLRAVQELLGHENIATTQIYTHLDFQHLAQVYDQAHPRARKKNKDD
T3 sequence 3: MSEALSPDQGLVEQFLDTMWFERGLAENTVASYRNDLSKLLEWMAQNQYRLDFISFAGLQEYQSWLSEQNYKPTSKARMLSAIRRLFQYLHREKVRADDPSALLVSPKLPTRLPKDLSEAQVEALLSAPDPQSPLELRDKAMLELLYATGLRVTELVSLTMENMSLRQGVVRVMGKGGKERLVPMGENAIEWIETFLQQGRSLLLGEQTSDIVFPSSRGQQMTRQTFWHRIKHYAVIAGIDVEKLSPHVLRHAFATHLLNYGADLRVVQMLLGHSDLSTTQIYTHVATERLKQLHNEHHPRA

[3] = biological target: T2, Endonuclease III (Endo III); assay: competition

B1: attP(+)/dif1 pseudo-HJ (structured_DNA)
DNA 1: GATCCGTGATCACGCTGAACGCGTTTTAGCAGTGCGCATTATGTGGCGCGGCATTATGTTGAGGGGCCTAACGCCTAAAGCGGCCGCCTA
DNA 2: ATCGTAGGCGGCCGCTTTAGGCGTTAGGCCCCGTAACATAATGGCGTATAATACGCATTCGACCGTTGCCGGATCCG
DNA 3: CGATCGGATCCGGCAACGGTCGAGTGCGTATTATGTATGTTATGTTAAATGACATCCTGAGATCTCGA
DNA 4: TCGATCGAGATCTCAGGATGTCATTTAACATAACATACATAATGCGCACTGCTAAAACGCGTTCAGCGTGATCACG
**Q.** Does B1 bind (XerC;XerD)?
**A.** binds

**Q.** Does B1 bind [1]?
**A.** binds

**Q.** Does B1 bind [2]?
**A.** binds

B2: dif1/dif1 HJ (structured_DNA)
DNA 1: GATCCGTGATCACGCTGAACGCGTTTTAGCAGTGCGCATTATGTATGTTATGTTAAATGGCCTAACGCCTAAAGCGGCCGCCTA
DNA 2: ATCGTAGGCGGCCGCTTTAGGCGTTAGGCCATTTAACATAACATACATAATGCGCACTCGACCGTTGCCGGATCCG
DNA 3: CGATCGGATCCGGCAACGGTCGAGTGCGCATTATGTATGTTATGTTAAATGACATCCTGAGATCTCGA
DNA 4: TCGATCGAGATCTCAGGATGTCATTTAACATAACATACATAATGCGCACTGCTAAAACGCGTTCAGCGTGATCACG
**Q.** Does B2 bind [3]?
**A.** binds
